The values below come from article PMC4400868.

This series can be described thus: AUC.

Turning to “Leucine-rich amelogenin protein, phosphorylated at S16 (LRAP(+P))”, the “% monomers (2.5 mM CaCl2, pH 7.4)” value is on record as 94% monomers; the monomer % (0.78 mg/mL, 50 mM NaCl, pH 7.4) was determined as 93.6%; the monomer % (0.78 mg/mL, 50 mM NaCl, pH 8.0) was 92.3%; the monomer % (0.92 mg/mL, 150 mM NaCl, pH 8.0) was 92.6%. Also, the monomer % (0.92 mg/mL, 200 mM NaCl, pH 8.0) stood at 97.9%; the monomer % (1.0 mg/mL, 50 mM NaCl, pH 5.8) amounted to 84.4%; the monomer % (1.0 mg/mL, 150 mM NaCl, pH 5.8) turned out to be 90.9%; the monomer % (1.0 mg/mL, 150 mM NaCl, pH 7.4) worked out at 93.9%. Further, the monomer % (1.0 mg/mL, 200 mM NaCl, pH 5.8) came to 94.5% and the monomer % (1.0 mg/mL, 200 mM NaCl, pH 7.4) turned out to be 97.7%.
